# From paper doi:10.1101/2023.12.02.569699 (bioRxiv, 2023)
# T1: RING1B (H. sapiens, UniProt Q99496 1-336)
# T1 sequence: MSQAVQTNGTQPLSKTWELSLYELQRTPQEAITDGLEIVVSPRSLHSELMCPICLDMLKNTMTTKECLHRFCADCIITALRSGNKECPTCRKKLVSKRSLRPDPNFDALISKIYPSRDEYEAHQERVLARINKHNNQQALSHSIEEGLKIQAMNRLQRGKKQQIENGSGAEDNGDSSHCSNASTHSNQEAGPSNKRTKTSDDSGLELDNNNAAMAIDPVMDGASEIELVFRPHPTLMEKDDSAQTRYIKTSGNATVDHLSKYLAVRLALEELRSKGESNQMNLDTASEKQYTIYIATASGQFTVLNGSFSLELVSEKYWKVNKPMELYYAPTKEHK
# Biological target: T1, RING1B
# Test: SEC
row,Binder,binding result
1,MBP-tagged BMI1 (natural protein) MHRTTRIKITELNPHLMCVLCGGYFIDATTIIECLHSFCKTCIVRYLETSKYCPICDVQVHKTRPLLNIRSDKTLQDIVYKLVPGLFKNEMKRRRDFYAAHPSADAANGSNEDRGEVADEDKRIITDDEIISLSIEFFDQNRLDRKVNKDKEKSKEEVNDKRYLRCPAAMTVMHLRKFLRSKMDIPNTFQIDVMYEEEPLKDYYTLMDIAYIYTWRRNGPLPLKYRVRPTCKRMKISHQRDGLTNAGELESDSGSDKANSPAGGIPSTSSCLPSPSTPVQSPHPQFPHISSTMNGTSNSPSGNHQSSFANRPRKSSVNGSSATSSG,binds
2,CBX7 (natural protein) MELSAIGEQVFAVESIRKKRVRKGKVEYLVKWKGWPPKYSTWEPEEHILDPRLVMAYEEKEERDRASGYRKRGPKPRRLLLQESAAPDVVQTPGDWEPMEQAPEEEAEADLTNGPPPWTPTLPSSEVTVTDITANSVTVTFREAQAAEGFFRDRNEKL,binds
3,CBX7(F11A) (natural protein) MELSAIGEQVAAVESIRKKRVRKGKVEYLVKWKGWPPKYSTWEPEEHILDPRLVMAYEEKEERDRASGYRKRGPKPRRLLLQESAAPDVVQTPGDWEPMEQAPEEEAEADLTNGPPPWTPTLPSSEVTVTDITANSVTVTFREAQAAEGFFRDRNEKL,binds
